Data from a protein production outcome set (Wang et al. 2014).

Test: label from the status in PepcDB records

Row | Sequence | protein production
1 | MQRLSTEFSMNHPVRRSPIASFFVGLWDVMNFTRRLIFNLVFFGFLFMLLLVFVVALARGDGTKPLAERTTLVINPEGTLVEQFSADPVSRSLAKAVGDKSAQEVQLRDLVRVIEAAGKDRKIERVLLNLDKFQPSGFASQREVAAALQKLRASGKQIVAFSESMSQGQYLLAAQANEVYLDPMGSVLLEGLGRYRQYFREGLQDKLGVDVHLFRVGEYKSAAEPYILDAASADAKEADLFWMNDVWQRYLADVVTARKLSPAQLTAGIDTLPEGVAAAGGDLAKFALQQKLVDGLKTREEVDALLVKRGVADSDAESGFRNIGFNDYLSQLQAQDSPMDSRPQVAVVVATGEISGGEQPAGRIGGESTAALLRQARDDEKVKAVVLRVDSPGGEVFASEQIRREVVALKQAGKPVVVSMGDLAASGGYWISMNADRIYADPSTISGSIGIFGMVPNLTRALDKIGVHTDGVGTTRFAGAFDITRPLDPAAGQVIQAVINKGYADFTGKVAQARHQSVDAIDKVARGRVWSGAQAKERGLVDAFGGMSEAVADAADRAKLSRGKFRVRYVEKPATPFSQFMNGFAGSRMGAWMLSDSGMARALVARALPEVDTQLRFVESAVHDSKAGGTPVKSLAYCFCGF | failed
2 | METTHYSIAQHFSSGDFPAVYACFNDIIEWNIIGNQVVKGKADVIDFCNKMLPEMKGAVLTNDNVIQNENQIVIEGKCRYFDAEGKEAFVSYCDIYRFENDTIKTITSYCI | not failed
3 | DASRQAELVREGITSSSDLVEQSLNKIEKGNSQLNAVTYLRADRALEEAKQINDHGQPFFGVPILLKGLGQKLAGEPATASSRLLKKLVADQTDFYVQALQKAGFIVIGQTNAPEFGFKNITDPTLYGPTRNPWNLDYYSGGSSGGAASSMAADFVSIASGSDGGGSIRIPASFSSLIGLKPTRGRIPVGPTDWRTWQGASISFALTRSVRDNARLLDAIQTVQPAAAFTTPLYEAGFFAGIDQLDRNLTIAYTTKSPVGTEVRDEAKTAVENAVDFLRSEGFQVEEQENPLDGKEIMQLYYLMNAGETAAMFADIEEGIGRPTNIQDMELMSWVIYQAGKLVTAGEYSQALSKWDISSYQMNQFHENYDLYLTPTTAYPAPKLTDELISPELLGRMKEVTSLTSSFERQQLIYDAFLPSLALTPFTQQANLTGEPAISLPTHLTAAGLPLGIQFQAAKGREIDLLRIARLFEKHNLFHFLHKTIF | failed
4 | MLDSRQAVFFRFFFGVLPQSGRGQVMTELARTIVAGVGGADNIVSLMHCATRLRFKLKDESKAQAEVLKKTPGIIMVVESGGQFQVVIGNHVADVFLAVNSVAGLGEKAQQAPENDDKGNLLNRFVYVISGIFTPLIGLMAATGILKGMLALALTFQWTTEQSGTYLILFSASDALFWFFPIILGYTAGKRFSGNPFTAMVIGGALVHPLILTAFENGQKVDALGLDFLGIPVTLLNYSSSVIPIIFSAWLCSILERRLNAWLPSAIKNFFTPLLCLMVITPITFLLVGPLSTWISELIAAGYLWLYQAVPAFAGAVMGGFWQIFVMFGLHWGLIPLIINNFTVLGYDTMIPLLMPAIMAQVGAALGVFLCERDAQKKVVAGSAALTGLFGITEPAVYGVNLPRKYPFVIACISGALGATIIGYAQTKVYSFGLPGIFTFMQTIPSTGIDFTVWASVIGGVIAIGCAFVGTVMLHFITAKRQSAQVAQQEKTPEVITPEQGGICSPMTGEIVPLIHVADTTFASGLLGKGIAIMPSVGEVRSPVAGRIASLFATLHAIGIESDDGVEILIHVGIDTVKLDGKFFSAHVNVGDKVNTGDRLISFDIPAIREAGFDLTTPVLISNSDDFTDVLPHGTAQINAGEPLLSIIR | failed
5 | MQSRSKSDMKPIRKEILNPGNAYIELTPGTRRLTPHDIGLFQVKFHFQTRRAGDSRIIDDSRKMEKPMELVLGKKFKLEVWELIVQQMSLNEVAKFTVHKSLCAQYPFISKTLRDIGKKPEERRHCCGMTLQNEGIGYTDLDELLQNPSDLEFIIELFSIELPEQYEKERWQMSDDEKMLATSTLRERGNNFYKASRFTEAETCYREAVGIVEQLMLKEKPHDEEWQELAAIKTPLLLNYAQCRLIAGDFYAVIEHCNEVLTLDPRNVKALFRRAKAHAGAWNPAQARRDFLDALALDASLKSTVSKELKSIEDQQQARNVQDRIHMQKLF | failed
6 | RRRAPLARLRQAIQRCEFFVCYQPIVSLSDGRCVGAEALVRWRQQDGTLILPDQFIPLAERSGLILPITDQVIAASMRELGPLLVADRSLHIAINVSVKDIESGRLLDVLALALQDTGLYRKQLWIEATERSFMDARAAREHIVRLREAGYAVVIDDFGTGYSNLQYLQQLPLDALKIDKSFIDTVGRDVTNTAVASHIIDIAKELGMRTIAEGVEREEQLVYLRARGVDMAQGWLFSSPLSVAEFVDYLSHNRSMHPDD | failed
7 | MISLKNFGLLFWKRFSENKLNQVAGALTYSTMLAMVPLVMVIFSIFSAFPVFNEVTGELKEMIFTNFAPSASDMVGEYIDQFVSNSKKMSAVGIVSLIAVALMLINNIDRTLNSIWHNSQSRSPLSSFAIYWMILTLGPLIIGVSIGISSYIKIMFEQSEHLSLGLKLLSFVPFLFTWFIFTLIYTVVPNKKVKIKHSAYGAFLAAIFFTLGKQAFTWYIVTFPSYQLIYGAMATLPIMLLWIQISWLVVLVGAQLASTLDEIGEQIEQ | failed
8 | MKGRWVKYLLMGTVVAMLAACSSKPTDRGQQYKDGKFTQPFSLVNQPDAVGAPINAGDFAEQINHIRNSSPRLYGNQSNVYNAVQEWLRAGGDTRNMRQFGIDAWQMEGADNYGNVQFTGYYTPVIQARHTRQGEFQYPIYRMPPKRGRLPSRAEIYAGALSDKYILAYSNSLMDNFIMDVQGSGYIDFGDGSPLNFFSYAGKNGHAYRSIGKVLIDRGEVKKEDMSMQAIRHWGETHSEAEVRELLEQNPSFVFFKPQSFAPVKGASAVPLVGRASVASDRSIIPPGTTLLAEVPLLDNNGKFNGQYELRLMVALDVGGAIKGQHFDIYQGIGPEAGHRAGWYNHYGRVWVLKTAPGAGNVFSG | not failed
9 | MYFFVPTANSKINQMIFYLSSMNLDMIKEYILSFGIWAPITSFLLMVLQSVIAPIPAFLITLSNAAIFGWVKGAILSWSSAMAGAALCFYIARGLGRDAVEKLTSKFALKDIDGFFEKYGKHTILIARLLPFISFDLVSYAAGLTSMNFWSFFIATGIGQLPATIVYSYVGGMLTGGAQLLMSGLLILFALSIAIYVGKKVWNEKRGKNDK | failed
10 | MMRQVRRGATPPPGPGPSAPPYGAGVPQQPSYTDGQGHGGDGYDSGYNTGQVYGGGGGGQGPGRQVRDRPAPDWRRRIKWTAITVVTVLVVTTVGTYFWADSKLNRDVDLSKVIDRPAAGEGTNYLIVGSDSREGMSKDQMKDLHTGYAEGKRTDSMMILHTGDNGSTLISLPRDSDVEIPSFVGSESGKKYPGTGRHTKLNAAYAEDGPELLVRTVEHNTGLRLDHYVEIGFGGFANIVDAVGGVEIDIPQDIKDKKSGADLKKGKQTLDGQEALAFVRTRYALAGSDLDRTKNQQKFLSALASQVATPSTVLNPFRLYPTMGAGLDSLVVDKDMGLFDLASMFWAMKSVSGGEGTSMNMPISGSVGGNLKWDDAKVKKLVEELKNDEKVTVSGNN | failed
11 | MLRFKRKNFFKTINFKIALVFALLLLITLEIVGAIFVKQLESKNIQDFKQSVQIPTYIDNSLSEQLTVSSTRKANGQIKTILSNYNNTNVDEIQVVDSKGTIRGTSDVNDQSVVGQKTTDRNVKNAIYNNRTYTKSTYDTQNNGRYYVSIVPLYSSNSAGNSSQLVGVLYVRANMKSVYSTINNIMGIFVIASLAAMVLGLGIAIIIARAITRPIEEMKQQTQRIARGDYAGQVRVYSDDELGQLAKAINNLSIRVEESQESTEAERRRLDSVLSHMSDGVIATDRRGNITIINETASDFMDVTAEKAIGNSILDILKIRDDYSLRDLIENQDELMLDFSSNERDLILNAYFSLIQRESGFISGLVCVLHDVTEQQKIDNDRKQFVSNVSHELRTPLTSLRSYIEALSDGAWKDPEVAPGFLKVTQEETDRMIRMINELLSLSRMDSGTTRVDMELVNINEMFNYVLDRFDMILKKDDNPAKYYTIKREFTKRDLWVEIDTDKFTQVLDNIMNNAIKYSPDGGVVTCRLLETHNQVIISISDQGLGIPRADLGHVFDRFFRVDKARSRAQGGTGLGLAISKEVVQMLGGRIWVDSVEGKGSTFYISLPYEPYEEEDLWDDDSQA | failed
12 | MQSRFRSDRRLTVRMGVTLFLLGLLYVGFVAALIALLKSWVLVVVIVALVFGAQYWFSDRIALFAMRGRVVEREEYPELHGVVDRLAAMADMPKPVVAVSEMEMPNAFATGRNPDNAVVCVTTGLLRRLEPAELEGVLAHELSHVAHKDVAVITVASFLGVIAGLIVRFAFYSQLFGGRRDQNTLAVLAVVMGVSAAVYALSFLLIRALSRYRELAADRAAALLTGRPSALAAALTKVTGDIARIPTKDLRTAQAFNAFYFTPAFGSDPGLGRFFATHPSLEQRLDQLGRISTELGEAPAPGKA | failed
13 | MLELAAGFICLTSLLTYVNYRFIGLPPTIGVMVTALMFSLLLQGLSFLGYPGLEDRVQQLIGQIDFGDLLMNWMLSFLLFAGALHVNLADLKSYRWPIGLLATFGVLIATTVIGALAYWIFALFGWHVSPLYCLLFGALISPTDPIAVLGVLRTANASKPLKTTIVGESLFNDGTAVVVFTVLLGIAQLGETPTVGETALLFVHEAVGGVLFGGLIGYAVYLMIKSIEQYQIEVMLTLALVIGGSAMASELHVSGPIAMVVAGLIIGNLGRNLAMNDMTRRYMDGFWELLDDMLNALLFALIGMELLLLPFSWQHLIAASLLAVAILLSRFVTVAPAILLLRRWRKVPHGTIRILTWGGLRGGVSVALALALPNGPERDLLLSITYIVVLLSILFQGLTIGKLVNAVTREPQAKDPAGH | failed
14 | MSKVRIAIIGNGMVGHRFIEELLDKAPAGQFDITVFCEEPRIAYDRVHLSSYFSHHTAEELSLVREGFYEKHGVKVLVGERAITINRQEKVIHSSAGRTVFYDKLIMATGSYPWIPPIKGAETQDCFVYRTIEDLNAIESCARRSKRGAVVGGGLLGLEAAGALKNLGVETHVIEFAPMLMAEQLDQMGGEQLRRKIESMGVKVHTSKNTKEIVQQGTEARKTMHFADGSELQVDFIVFSTGIRPRDKLATQCGLAVAQRGGIMVNDSCQTSDPDIYAIGECASWNNRVYGLVAPGYKMAQVAVDHLLGSENSFTGADLSAKLKLLGVDVGGIGDAHGRTPGARSYVYLDESKEVYKRLIVSADNKTLLGAVLVGDTSDYGNLLQLVLNAIELPENPDSLILPAHAGSGKPSIGVDKLPDSAQICSCFDVSKGDLIAAINKGCHTVAALKAETKAGTGCGGCIPLVTQVLNAELAKQGIEVNNNLCEHFAYSRQELFHLIRVEGIKTFDELLEKHGQGYGCEVCKPTVGSLLASCWNEYILKPQHTPLQDSNDNFLANIQKDGTYSVIPRSAGGEITPEGLVAVGRIAREFNLYTKITGSQRIGLFGAQKDDLPEIWRQLIEAGFETGHAYAKALRMAKTCVGSTWCRYGVGDSVGFGVELENRYKGIRTPHKMKFGVSGCTRECAEAQGKDVGIIATEKGWNLYVCGNGGMKPRHADLLAADLDRETLIKYLDRFMMFYIRTADKLTRTAPWLDNMEGGIDYLRSVIIDDKLGLNDHLEEELARLRAAFACEWTETVNNPAAQTRFKHFINSDQRDPNVQVVPERDQHRPATPYERIPVTLVEEKA | not failed
15 | MTLSGGGSASDMSGQTVLTAEDVDIDVVGEGDDGLEEKDSDAGCDSPAGPPELRLDEADEVPPAAPHHGQPQPPHQQPLTLPKEAAGAGAGPGGDVGAPEADGCKGGVGGEEGGASGGGPGAGSGSAGGLAPSKPKNSLVKPPYSYIALITMAILQSPQKKLTLSGICEFISNRFPYYREKFPAWQNSIRHNLSLNDCFVKIPREPGNPGKGNYWTLDPQSEDMFDNGSFLRRRKRFKRHQQEHLREQTALMMQSFGAYSLAAAAGAAGPYGRPYGLHPAAAAGAYSHPAAAAAAAAAAALQYPYALPPVAPVLPPAVPLLPSGELGRKAAAFGSQLGPGLQLQLNSLGAAAAAAGTAGAAGTTASLIKSEPSARPSFSIENIIGGGPAAPGGSAVGAGVAGGTGGSGGGSTAQSFLRPPGTVQSAALMATHQPLSLSRTTATIAPILSVPLSGQFLQPAASAAAAAAAAAQAKWPAQ | failed
